In the RNAGym collection of RNA variant scans (doi:10.1021/acssynbio.7b00057):

B1: Pistol ribozyme (parent)
chain: GGGUCGUUGUUCCAUAAUCGCGUGGAUAUGGCACGCAAGUUUCUACCGGGCACCGUAAAUGUCCGACUGGAGCCGUUCGGGCGGCUAUAAACAGACCUCAGGCCCGAAGCGUGGCGGCACCUGCCGCCGGUGGUAAAAAAGAUCGGAAGAGCACACGUCU

Variants of: B1
Assay: aptazyme ON/OFF ratio, guanine; higher = stronger switching; co-transcriptional cleavage with and without guanine

Variant | aptazyme ON/OFF ratio
GGGUCGUUUUAAAAUAAUCGCGUGGAUAUGGCACGCAAGUUUCUACCGGGCACCGUAAAUGUCCGACUGGAGCCGUUCGGGCGGCUAUAAACAGACCUCAGGCCCGAAGCGUGGCGGCACCUGCCGCCGGUGGUAAAAAAGAUCGGAAGAGCACACGUCU | 1.59
GGGUCGUUUUAAUAUAAUCGCGUGGAUAUGGCACGCAAGUUUCUACCGGGCACCGUAAAUGUCCGACUGGAGCCGUUCGGGCGGCUAUAAACAGACCUCAGGCCCGAAGCGUGGCGGCACCUGCCGCCGGUGGUAAAAAAGAUCGGAAGAGCACACGUCU | 1.23
GGGUCGUUUUAAGAUAAUCGCGUGGAUAUGGCACGCAAGUUUCUACCGGGCACCGUAAAUGUCCGACUGGAGCCGUUCGGGCGGCUAUAAACAGACCUCAGGCCCGAAGCGUGGCGGCACCUGCCGCCGGUGGUAAAAAAGAUCGGAAGAGCACACGUCU | 1.31
GGGUCGUUUUAGCAUAAUCGCGUGGAUAUGGCACGCAAGUUUCUACCGGGCACCGUAAAUGUCCGACUGGAGCCGUUCGGGCGGCUAUAAACAGACCUCAGGCCCGAAGCGUGGCGGCACCUGCCGCCGGUGGUAAAAAAGAUCGGAAGAGCACACGUCU | 1.55
GGGUCGUUUUAUCAUAAUCGCGUGGAUAUGGCACGCAAGUUUCUACCGGGCACCGUAAAUGUCCGACUGGAGCCGUUCGGGCGGCUAUAAACAGACCUCAGGCCCGAAGCGUGGCGGCACCUGCCGCCGGUGGUAAAAAAGAUCGGAAGAGCACACGUCU | 1.47
GGGUCGUUUUAACAUAAUCGCGUGGAUAUGGCACGCAAGUUUCUACCGGGCACCGUAAAUGUCCGACUGGAGCCGUUCGGGCGGCUAUAAACAGACCUCAGGCCCGAAGCGUGGCGGCACCUGCCGCCGGUGGUAAAAAAGAUCGGAAGAGCACACGUCU | 2.63
GGGUCGUUUGGUCAUAAUCGCGUGGAUAUGGCACGCAAGUUUCUACCGGGCACCGUAAAUGUCCGACUGGAGCCGUUCGGGCGGCUAUAAACAGACCUCAGGCCCGAAGCGUGGCGGCACCUGCCGCCGGUGGUAAAAAAGAUCGGAAGAGCACACGUCU | 1.33
GGGUCGUUUGGGCAUAAUCGCGUGGAUAUGGCACGCAAGUUUCUACCGGGCACCGUAAAUGUCCGACUGGAGCCGUUCGGGCGGCUAUAAACAGACCUCAGGCCCGAAGCGUGGCGGCACCUGCCGCCGGUGGUAAAAAAGAUCGGAAGAGCACACGUCU | 1.82
GGGUCGUUUGGACAUAAUCGCGUGGAUAUGGCACGCAAGUUUCUACCGGGCACCGUAAAUGUCCGACUGGAGCCGUUCGGGCGGCUAUAAACAGACCUCAGGCCCGAAGCGUGGCGGCACCUGCCGCCGGUGGUAAAAAAGAUCGGAAGAGCACACGUCU | 1.75
GGGUCGUUUUACCAUAAUCGCGUGGAUAUGGCACGCAAGUUUCUACCGGGCACCGUAAAUGUCCGACUGGAGCCGUUCGGGCGGCUAUAAACAGACCUCAGGCCCGAAGCGUGGCGGCACCUGCCGCCGGUGGUAAAAAAGAUCGGAAGAGCACACGUCU | 1.24
GGGUCGUUUUCCCAUAAUCGCGUGGAUAUGGCACGCAAGUUUCUACCGGGCACCGUAAAUGUCCGACUGGAGCCGUUCGGGCGGCUAUAAACAGACCUCAGGCCCGAAGCGUGGCGGCACCUGCCGCCGGUGGUAAAAAAGAUCGGAAGAGCACACGUCU | 2.53
GGGUCGUUUGGCGAUAAUCGCGUGGAUAUGGCACGCAAGUUUCUACCGGGCACCGUAAAUGUCCGACUGGAGCCGUUCGGGCGGCUAUAAACAGACCUCAGGCCCGAAGCGUGGCGGCACCUGCCGCCGGUGGUAAAAAAGAUCGGAAGAGCACACGUCU | 1.19
GGGUCGUUUGGCAAUAAUCGCGUGGAUAUGGCACGCAAGUUUCUACCGGGCACCGUAAAUGUCCGACUGGAGCCGUUCGGGCGGCUAUAAACAGACCUCAGGCCCGAAGCGUGGCGGCACCUGCCGCCGGUGGUAAAAAAGAUCGGAAGAGCACACGUCU | 1.25
GGGUCGUUUGGCUAUAAUCGCGUGGAUAUGGCACGCAAGUUUCUACCGGGCACCGUAAAUGUCCGACUGGAGCCGUUCGGGCGGCUAUAAACAGACCUCAGGCCCGAAGCGUGGCGGCACCUGCCGCCGGUGGUAAAAAAGAUCGGAAGAGCACACGUCU | 1.26
GGGUCGUUUUAGGAUAAUCGCGUGGAUAUGGCACGCAAGUUUCUACCGGGCACCGUAAAUGUCCGACUGGAGCCGUUCGGGCGGCUAUAAACAGACCUCAGGCCCGAAGCGUGGCGGCACCUGCCGCCGGUGGUAAAAAAGAUCGGAAGAGCACACGUCU | 1.2
GGGUCGUUUUAGUAUAAUCGCGUGGAUAUGGCACGCAAGUUUCUACCGGGCACCGUAAAUGUCCGACUGGAGCCGUUCGGGCGGCUAUAAACAGACCUCAGGCCCGAAGCGUGGCGGCACCUGCCGCCGGUGGUAAAAAAGAUCGGAAGAGCACACGUCU | 1
GGGUCGUUUUAGAAUAAUCGCGUGGAUAUGGCACGCAAGUUUCUACCGGGCACCGUAAAUGUCCGACUGGAGCCGUUCGGGCGGCUAUAAACAGACCUCAGGCCCGAAGCGUGGCGGCACCUGCCGCCGGUGGUAAAAAAGAUCGGAAGAGCACACGUCU | 1.82
GGGUCGUUUGGGGAUAAUCGCGUGGAUAUGGCACGCAAGUUUCUACCGGGCACCGUAAAUGUCCGACUGGAGCCGUUCGGGCGGCUAUAAACAGACCUCAGGCCCGAAGCGUGGCGGCACCUGCCGCCGGUGGUAAAAAAGAUCGGAAGAGCACACGUCU | 1.31

Variant | aptazyme ON/OFF ratio
GGGUCGUUUGGGAAUAAUCGCGUGGAUAUGGCACGCAAGUUUCUACCGGGCACCGUAAAUGUCCGACUGGAGCCGUUCGGGCGGCUAUAAACAGACCUCAGGCCCGAAGCGUGGCGGCACCUGCCGCCGGUGGUAAAAAAGAUCGGAAGAGCACACGUCU | 1.25
GGGUCGUUUGGGUAUAAUCGCGUGGAUAUGGCACGCAAGUUUCUACCGGGCACCGUAAAUGUCCGACUGGAGCCGUUCGGGCGGCUAUAAACAGACCUCAGGCCCGAAGCGUGGCGGCACCUGCCGCCGGUGGUAAAAAAGAUCGGAAGAGCACACGUCU | 1.27
GGGUCGUUUGGAGAUAAUCGCGUGGAUAUGGCACGCAAGUUUCUACCGGGCACCGUAAAUGUCCGACUGGAGCCGUUCGGGCGGCUAUAAACAGACCUCAGGCCCGAAGCGUGGCGGCACCUGCCGCCGGUGGUAAAAAAGAUCGGAAGAGCACACGUCU | 1.13
GGGUCGUUUGGAUAUAAUCGCGUGGAUAUGGCACGCAAGUUUCUACCGGGCACCGUAAAUGUCCGACUGGAGCCGUUCGGGCGGCUAUAAACAGACCUCAGGCCCGAAGCGUGGCGGCACCUGCCGCCGGUGGUAAAAAAGAUCGGAAGAGCACACGUCU | 1.38
GGGUCGUUUGGAAAUAAUCGCGUGGAUAUGGCACGCAAGUUUCUACCGGGCACCGUAAAUGUCCGACUGGAGCCGUUCGGGCGGCUAUAAACAGACCUCAGGCCCGAAGCGUGGCGGCACCUGCCGCCGGUGGUAAAAAAGAUCGGAAGAGCACACGUCU | 1.28
GGGUCGUUUGGUGAUAAUCGCGUGGAUAUGGCACGCAAGUUUCUACCGGGCACCGUAAAUGUCCGACUGGAGCCGUUCGGGCGGCUAUAAACAGACCUCAGGCCCGAAGCGUGGCGGCACCUGCCGCCGGUGGUAAAAAAGAUCGGAAGAGCACACGUCU | 1.17
GGGUCGUUUGGUUAUAAUCGCGUGGAUAUGGCACGCAAGUUUCUACCGGGCACCGUAAAUGUCCGACUGGAGCCGUUCGGGCGGCUAUAAACAGACCUCAGGCCCGAAGCGUGGCGGCACCUGCCGCCGGUGGUAAAAAAGAUCGGAAGAGCACACGUCU | 1.34
GGGUCGUUUGGUAAUAAUCGCGUGGAUAUGGCACGCAAGUUUCUACCGGGCACCGUAAAUGUCCGACUGGAGCCGUUCGGGCGGCUAUAAACAGACCUCAGGCCCGAAGCGUGGCGGCACCUGCCGCCGGUGGUAAAAAAGAUCGGAAGAGCACACGUCU | 1.1
GGGUCGUUUUACAAUAAUCGCGUGGAUAUGGCACGCAAGUUUCUACCGGGCACCGUAAAUGUCCGACUGGAGCCGUUCGGGCGGCUAUAAACAGACCUCAGGCCCGAAGCGUGGCGGCACCUGCCGCCGGUGGUAAAAAAGAUCGGAAGAGCACACGUCU | 1.48
GGGUCGUUUUACUAUAAUCGCGUGGAUAUGGCACGCAAGUUUCUACCGGGCACCGUAAAUGUCCGACUGGAGCCGUUCGGGCGGCUAUAAACAGACCUCAGGCCCGAAGCGUGGCGGCACCUGCCGCCGGUGGUAAAAAAGAUCGGAAGAGCACACGUCU | 1.44
GGGUCGUUUUACGAUAAUCGCGUGGAUAUGGCACGCAAGUUUCUACCGGGCACCGUAAAUGUCCGACUGGAGCCGUUCGGGCGGCUAUAAACAGACCUCAGGCCCGAAGCGUGGCGGCACCUGCCGCCGGUGGUAAAAAAGAUCGGAAGAGCACACGUCU | 1.13
GGGUCGUUUGCCUAUAAUCGCGUGGAUAUGGCACGCAAGUUUCUACCGGGCACCGUAAAUGUCCGACUGGAGCCGUUCGGGCGGCUAUAAACAGACCUCAGGCCCGAAGCGUGGCGGCACCUGCCGCCGGUGGUAAAAAAGAUCGGAAGAGCACACGUCU | 1.14
GGGUCGUUUGCCGAUAAUCGCGUGGAUAUGGCACGCAAGUUUCUACCGGGCACCGUAAAUGUCCGACUGGAGCCGUUCGGGCGGCUAUAAACAGACCUCAGGCCCGAAGCGUGGCGGCACCUGCCGCCGGUGGUAAAAAAGAUCGGAAGAGCACACGUCU | 1.1
GGGUCGUUUUCACAUAAUCGCGUGGAUAUGGCACGCAAGUUUCUACCGGGCACCGUAAAUGUCCGACUGGAGCCGUUCGGGCGGCUAUAAACAGACCUCAGGCCCGAAGCGUGGCGGCACCUGCCGCCGGUGGUAAAAAAGAUCGGAAGAGCACACGUCU | 2
GGGUCGUUUGGCCAUAAUCGCGUGGAUAUGGCACGCAAGUUUCUACCGGGCACCGUAAAUGUCCGACUGGAGCCGUUCGGGCGGCUAUAAACAGACCUCAGGCCCGAAGCGUGGCGGCACCUGCCGCCGGUGGUAAAAAAGAUCGGAAGAGCACACGUCU | 1.55
GGGUCGUUUUAUAAUAAUCGCGUGGAUAUGGCACGCAAGUUUCUACCGGGCACCGUAAAUGUCCGACUGGAGCCGUUCGGGCGGCUAUAAACAGACCUCAGGCCCGAAGCGUGGCGGCACCUGCCGCCGGUGGUAAAAAAGAUCGGAAGAGCACACGUCU | 1.02
GGGUCGUUUUAUUAUAAUCGCGUGGAUAUGGCACGCAAGUUUCUACCGGGCACCGUAAAUGUCCGACUGGAGCCGUUCGGGCGGCUAUAAACAGACCUCAGGCCCGAAGCGUGGCGGCACCUGCCGCCGGUGGUAAAAAAGAUCGGAAGAGCACACGUCU | 1.65
GGGUCGUUUUAUGAUAAUCGCGUGGAUAUGGCACGCAAGUUUCUACCGGGCACCGUAAAUGUCCGACUGGAGCCGUUCGGGCGGCUAUAAACAGACCUCAGGCCCGAAGCGUGGCGGCACCUGCCGCCGGUGGUAAAAAAGAUCGGAAGAGCACACGUCU | 1.5
